Reference: publication PMC8274835

Tests used:
Assay in all cases: co-IP; mCherry-Rac1 transiently expressed in HEK293T for 16 h, precipitated with the RFP-TRAP kit (Chromotek); endogenous RhoGDI by Western blot, quantified (n = 3)
[1] = target: mCherry-Rac1 P29S (UniProt P63000)
[2] = target: mCherry-Rac1 G12V (UniProt P63000)
[3] = target: mCherry-Rac1 F28L (UniProt P63000)
[4] = target: mCherry-Rac1 Y64F (UniProt P63000)

- reduction of co-precipitated GDI against Rac1 WT [1]: 50%
- reduction of co-precipitated GDI against Rac1 WT [2]: 50%
- reduction of co-precipitated GDI against Rac1 WT [3]: 50%
- reduction of co-precipitated GDI against Rac1 WT [4]: 50%
Substance: RhoGDI (endogenous, HEK293T) (from UniProt P52565 1-204) (natural protein)
